Measurements: patent publication US20220162261A1 (published 2022)
Numbered stars: 1 amine (or outer) side, 2 acyl side, 3 side chain; on linkers, the order of the positions; unused ones are H or OH. Bridge positions count the residues as written; N and C are the ends. Square brackets hold non-standard residues; d marks the D form. Ends that are not written are not given here. Glu(OMe) = L-glutamic acid gamma-methyl ester, COC(=O)CC[C@H](N[*:1])C(=O)[*:2]; Phe(4-COOH) = N[C@@H](Cc1ccc(C(=O)O)cc1)C(=O)O; Phe(4-tBu) = CC(C)(C)c1ccc(C[C@H](N)C(=O)O)cc1; NMeR = CN[C@@H](CCCNC(=N)N)C(=O)O; β3hE = N[C@@H](CCC(=O)O)CC(=O)O; NMeK = CN[C@@H](CCCCN)C(=O)O; Pen = CC(C)(S)[C@H](N)C(=O)O; βAla = NCCC(=O)O

B1: SEQ ID NO: 165 (peptide)
peptide: Ac-[Pen][NMeR]SDTL[Pen][Phe(4-tBu)][β3hE]-NH2
modifications: disulfide 1-7
SMILES: CC(=O)N[C@@H]1C(=O)N(C)[C@@H](CCCNC(=N)N)C(=O)N[C@@H](CO)C(=O)N[C@@H](CC(=O)O)C(=O)N[C@@H]([C@@H](C)O)C(=O)N[C@@H](CC(C)C)C(=O)N[C@H](C(=O)N[C@@H](Cc2ccc(C(C)(C)C)cc2)C(=O)N[C@@H](CCC(=O)O)CC(N)=O)C(C)(C)SSC1(C)C
B2: SEQ ID NO: 130 (peptide)
peptide: Ac-[Pen][NMeR]SDTL[Pen][Phe(4-COOH)][β3hE][dK]-NH2
modifications: disulfide 1-7; not fully specified (residue 10); printed as (Ac Pen N-Me-R S D T L Pen F(4-COOH) b-H-E k NH2)2 DIG, disulfide Pen-Pen; also: homodimer, two subunits joined by DIG linker
B3: SEQ ID NO: 168 (peptide)
peptide: Ac-[Pen][NMeR]SDTL[Pen][Phe(4-tBu)][β3hE][dK]-OH
modifications: disulfide 1-7; not fully specified (residue 10); printed as (Ac Pen N-Me-R S D T L Pen F(4tBu) b-H-E k OH)2 DIG, disulfide Pen-Pen; also: homodimer (…)2 DIG via D-Lys10 NZ
B4: SEQ ID NO: 147 (peptide)
peptide: Ac-[Pen][NMeR]SDTL[Pen][Phe(4-COOH)]E[NMeK]-NH2
modifications: disulfide 1-7; not fully specified (residue 10); printed as (Ac Pen N-Me-R S D T L Pen F(4-COOH) E N-Me-K NH2)2 DIG, disulfide Pen-Pen; also: homodimer (…)2 DIG via Lys10 NZ
B5: SEQ ID NO: 149 (peptide)
peptide: Ac-[Pen][NMeR]SDTL[Pen][Phe(4-tBu)][β3hE][NMeK]-NH2
modifications: disulfide 1-7; not fully specified (residue 10); printed as (Ac Pen N-Me-R S D T L Pen F(4-tBu) b-H-E N-Me-K NH2)2 DIG, disulfide Pen-Pen; also: homodimer (…)2 DIG via Lys10 NZ
B6: SEQ ID NO: 167 (peptide)
peptide: Ac-[Pen][NMeR]SDTL[Pen][Phe(4-tBu)][β3hE][dK]-NH2
modifications: disulfide 1-7; not fully specified (residue 10); printed as (Ac Pen N-Me-R S D T L Pen F(4-tBu) b-H-E k NH2)2 IDA PEG4 Biotin, disulfide Pen-Pen; also: homodimer (…)2 IDA PEG4 Biotin via D-Lys10 NZ
B7: SEQ ID NO: 166 (peptide)
peptide: Ac-[Pen][NMeR]SDTL[Pen][Phe(4-tBu)][β3hE][dK]-NH2
modifications: disulfide 1-7; not fully specified (residue 10); printed as (Ac Pen N-Me-R S D T L Pen F(4-tBu) b-H-E k NH2)2 IDA, disulfide Pen-Pen; also: homodimer (…)2 IDA via D-Lys10 NZ
B8: SEQ ID NO: 129 (peptide)
peptide: Ac-[Pen][NMeR]SDTL[Pen][Phe(4-COOH)]E[dK]-NH2
modifications: disulfide 1-7; not fully specified (residue 10); printed as (Ac Pen N-Me-R S D T L Pen F(4-COOH) E k NH2)2 DIG, disulfide Pen-Pen; also: homodimer: two subunits joined by DIG linker
B9: SEQ ID NO: 152 (peptide)
peptide: Ac-[Pen][NMeR]SDTL[Pen][Phe(4-tBu)][β3hE]-OH
modifications: disulfide 1-7
SMILES: CC(=O)N[C@@H]1C(=O)N(C)[C@@H](CCCNC(=N)N)C(=O)N[C@@H](CO)C(=O)N[C@@H](CC(=O)O)C(=O)N[C@@H]([C@@H](C)O)C(=O)N[C@@H](CC(C)C)C(=O)N[C@H](C(=O)N[C@@H](Cc2ccc(C(C)(C)C)cc2)C(=O)N[C@@H](CCC(=O)O)CC(=O)O)C(C)(C)SSC1(C)C
B10: SEQ ID NO: 133 (peptide)
peptide: Ac-[Pen][NMeR]SDTL[Pen][Phe(4-tBu)]E[NMeK]-NH2
modifications: disulfide 1-7; not fully specified (residue 10); printed as (Ac Pen N-Me-R S D T L Pen F(4tBu) E N-Me-K NH2)2 DIG, disulfide Pen-Pen; also: homodimer, two subunits joined by DIG linker
B11: SEQ ID NO: 153 (peptide)
peptide: Ac-[Pen][NMeR]SDTL[Pen][Phe(4-tBu)][β3hE][dK]-NH2
modifications: disulfide 1-7
SMILES: CC(=O)N[C@@H]1C(=O)N(C)[C@@H](CCCNC(=N)N)C(=O)N[C@@H](CO)C(=O)N[C@@H](CC(=O)O)C(=O)N[C@@H]([C@@H](C)O)C(=O)N[C@@H](CC(C)C)C(=O)N[C@H](C(=O)N[C@@H](Cc2ccc(C(C)(C)C)cc2)C(=O)N[C@@H](CCC(=O)O)CC(=O)N[C@H](CCCCN)C(N)=O)C(C)(C)SSC1(C)C
B12: SEQ ID NO: 54 (peptide)
peptide: [βAla][Pen][NMeR]SDTL[Pen]WE-NH2
modifications: disulfide 2-8; not fully specified (N-terminus); printed as DIG (NH2 Beta-Ala Pen N-Me-R S D T L Pen W E NH2)2, disulfide Pen-Pen; also: homodimer: two subunits linked by DIG via N-terminal Beta-Ala amine
notes: linker printed at the N-terminus
B13: SEQ ID NO: 22 (peptide)
peptide: Ac-[Pen][NMeR]SDTL[Pen]YE[dK]-NH2
modifications: disulfide 1-7; not fully specified (residue 10); printed as (Ac Pen N-Me-R S D T L Pen Y E k NH2)2 DIG, disulfide Pen-Pen; also: dimer, two subunits joined by DIG linker
B14: SEQ ID NO: 141 (peptide)
peptide: Ac-[Pen][NMeR]SDTL[Pen]W[β3hE][NMeK]-NH2
modifications: disulfide 1-7; not fully specified (residue 10); printed as (Ac Pen N-Me-R S D T L Pen W b-H-E N-Me-K NH2)2 DIG, disulfide Pen-Pen; also: homodimer (…)2 DIG via Lys10 NZ
B15: SEQ ID NO: 146 (peptide)
peptide: XRSDTLXWE
modifications: Ac Pen N-Me-R S D T L Pen W b-H-E OH; disulfide Pen-Pen
B16: SEQ ID NO: 148 (peptide)
peptide: Ac-[Pen][NMeR]SDTL[Pen][Phe(4-COOH)][β3hE][NMeK]-NH2
modifications: disulfide 1-7; not fully specified (residue 10); printed as (Ac Pen N-Me-R S D T L Pen F(4-COOH) b-H-E N-Me-K NH2)2 DIG, disulfide Pen-Pen; also: homodimer (…)2 DIG via Lys10 NZ
B17: SEQ ID NO: 86 (peptide)
peptide: Ac-[Pen][NMeR]SDTL[Pen]W[Glu(OMe)][dK]-NH2
modifications: disulfide 1-7; not fully specified (residue 10); printed as (Ac Pen N-Me-R S D T L Pen W E(OMe) k NH2)2 DIG, disulfide Pen-Pen; also: homodimer: two subunits linked by DIG via D-Lys10 side chain

Target: T1, human α4β7 integrin on cells (human, UniProt P13612 34-1032; P26010 20-798)
T1 construct: whole, on cells; also called α4β7 cell (Hu); RPMI8866 cells
Assay: PBMC memory T cell adhesion

| IC50 | Binder |
| --- | --- |
| > 100 nM | B1 |
| ≤ 10 nM | B2 |
| ≤ 10 nM | B3 |
| ≤ 10 nM | B4 |
| ≤ 10 nM | B5 |
| ≤ 10 nM | B6 |
| ≤ 10 nM | B7 |
| ≤ 10 nM | B8 |
| > 25 nM | B9 |
| ≤ 10 nM | B10 |

Target: T2, α4β1 (R&D Systems #5668-A4) (UniProt P13612 34-970; P05556 21-728, limits assumed)
T2 construct: bought; also called soluble α4β1
Assay: competition ELISA vs VCAM-1

| IC50 | Binder |
| --- | --- |
| > 1000 nM | B11 |
| > 500 nM | B5 |
| > 100 nM | B12 |
| > 100 nM | B13 |
| > 500 nM | B14 |
| > 1000 nM | B15 |
| > 100 nM | B9 |

Target: T3, mouse α4β7 integrin on TK1 cells (mouse, UniProt Q00651 41-1039; P26011 20-806)
T3 construct: whole, on cells; also called α4β7 cell (Mu); Cell Adhesion α4β7 Mouse
Assay: TK1 cell adhesion to MAdCAM-1

T3 sequence (Q00651 41-1039, chain 1 of 2): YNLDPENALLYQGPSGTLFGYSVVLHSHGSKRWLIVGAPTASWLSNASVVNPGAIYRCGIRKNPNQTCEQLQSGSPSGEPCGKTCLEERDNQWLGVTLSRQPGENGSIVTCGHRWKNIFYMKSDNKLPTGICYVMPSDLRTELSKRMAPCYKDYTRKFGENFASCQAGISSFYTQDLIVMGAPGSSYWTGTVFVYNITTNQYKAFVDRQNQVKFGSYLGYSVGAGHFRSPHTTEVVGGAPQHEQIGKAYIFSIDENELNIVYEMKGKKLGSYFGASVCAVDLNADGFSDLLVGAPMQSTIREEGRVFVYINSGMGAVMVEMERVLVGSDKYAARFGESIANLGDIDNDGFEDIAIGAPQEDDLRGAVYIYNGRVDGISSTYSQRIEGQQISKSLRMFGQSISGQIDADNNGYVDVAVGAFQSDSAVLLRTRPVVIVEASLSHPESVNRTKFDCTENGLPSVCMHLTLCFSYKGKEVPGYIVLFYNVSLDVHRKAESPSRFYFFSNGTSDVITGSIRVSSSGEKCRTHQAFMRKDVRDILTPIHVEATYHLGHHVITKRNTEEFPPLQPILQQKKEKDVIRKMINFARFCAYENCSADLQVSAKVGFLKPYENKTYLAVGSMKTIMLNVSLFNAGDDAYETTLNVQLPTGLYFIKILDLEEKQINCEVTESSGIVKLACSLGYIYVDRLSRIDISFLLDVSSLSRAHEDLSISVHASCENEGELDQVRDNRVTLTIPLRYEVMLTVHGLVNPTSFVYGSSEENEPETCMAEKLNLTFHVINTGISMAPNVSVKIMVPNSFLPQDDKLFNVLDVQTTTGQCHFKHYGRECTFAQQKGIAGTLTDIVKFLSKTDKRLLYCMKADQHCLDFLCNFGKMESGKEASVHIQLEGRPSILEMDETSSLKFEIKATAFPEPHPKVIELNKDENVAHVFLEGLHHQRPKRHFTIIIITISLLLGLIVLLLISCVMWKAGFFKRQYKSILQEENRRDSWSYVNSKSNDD
T3 sequence (P26011 20-806, chain 2 of 2): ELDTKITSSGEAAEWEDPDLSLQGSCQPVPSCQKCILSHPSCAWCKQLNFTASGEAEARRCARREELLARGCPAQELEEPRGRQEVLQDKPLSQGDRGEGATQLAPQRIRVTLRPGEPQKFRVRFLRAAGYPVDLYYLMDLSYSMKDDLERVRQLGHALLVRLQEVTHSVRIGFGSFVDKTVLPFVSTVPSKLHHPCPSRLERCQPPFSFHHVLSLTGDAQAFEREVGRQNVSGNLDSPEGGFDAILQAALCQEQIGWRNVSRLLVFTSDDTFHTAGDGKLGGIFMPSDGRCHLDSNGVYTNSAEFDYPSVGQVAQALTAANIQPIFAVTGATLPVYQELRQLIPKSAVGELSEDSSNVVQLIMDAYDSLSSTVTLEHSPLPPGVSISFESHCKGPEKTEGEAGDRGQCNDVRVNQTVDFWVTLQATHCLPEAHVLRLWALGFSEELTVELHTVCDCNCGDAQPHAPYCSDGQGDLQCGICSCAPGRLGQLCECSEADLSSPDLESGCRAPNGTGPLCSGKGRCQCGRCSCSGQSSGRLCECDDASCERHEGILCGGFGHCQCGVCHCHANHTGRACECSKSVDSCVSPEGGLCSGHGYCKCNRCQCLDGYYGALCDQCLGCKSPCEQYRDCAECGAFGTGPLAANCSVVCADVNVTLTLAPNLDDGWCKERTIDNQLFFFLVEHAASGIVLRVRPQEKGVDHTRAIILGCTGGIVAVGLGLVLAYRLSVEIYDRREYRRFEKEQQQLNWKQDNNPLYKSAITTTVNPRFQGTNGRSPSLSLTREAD

| IC50 | Binder |
| --- | --- |
| ≤ 10 nM | B4 |
| > 10 nM | B11 |
| ≤ 10 nM | B5 |
| ≤ 10 nM | B16 |
| ≤ 10 nM | B17 |
| > 50 nM | B15 |
| ≤ 10 nM | B9 |

Target: T4, rh integrin α4β7 (R&D Systems #5397-A30) (human, UniProt P13612 34-970; P26010 20-723)
T4 construct: bought; coated on a nickel coated plate; also called immobilized α4β7; immobilized α4β7 integrin protein
Assay: competition ELISA vs MAdCAM-1

| IC50 | Binder |
| --- | --- |
| ≤ 10 nM | B2 |
| ≤ 10 nM | B4 |
| > 10 nM | B11 |
| ≤ 10 nM | B5 |
| ≤ 10 nM | B16 |
| ≤ 10 nM | B8 |
| ≤ 10 nM | B13 |
| ≤ 10 nM | B14 |
| ≤ 10 nM | B9 |
| ≤ 10 nM | B10 |

Target: T1, human α4β7 integrin on cells
Assay: RPMI8866 cell adhesion to MAdCAM-1

| IC50 | Binder |
| --- | --- |
| > 10 nM | B1 |
| ≤ 10 nM | B2 |
| ≤ 10 nM | B3 |
| ≤ 10 nM | B4 |
| > 10 nM | B11 |
| ≤ 10 nM | B5 |
| ≤ 10 nM | B16 |
| ≤ 10 nM | B6 |
| ≤ 10 nM | B7 |
| ≤ 10 nM | B8 |
| > 25 nM | B12 |
| ≤ 10 nM | B13 |
| ≤ 10 nM | B17 |
| ≤ 10 nM | B14 |
| > 50 nM | B15 |
| ≤ 10 nM | B9 |
